Experiment: pseudovirus neutralisation, TZM-bl
Conditions: glycan lost; control: wild type

Substance: HIV-1 CAP239.G3 Env: N332A
- other: neutralisation sensitivity, other: ID50 (reciprocal plasma dilution): decreases, 204.60 vs 1096.00

Substance: HIV-1 25711-2.4 Env: N301A
- other: neutralisation sensitivity, other: ID50 (reciprocal plasma dilution): decreases, 749.81 vs 1822.04

Substance: HIV-1 CAP239.G3 Env: N160A
- other: neutralisation sensitivity, other: ID50 (reciprocal plasma dilution): increases, 4184.00 vs 1096.00, Fold decrease in ID50 0.26

Substance: HIV-1 25711-2.4 Env: N160A
- other: neutralisation sensitivity, other: ID50 (reciprocal plasma dilution): no change, 1484.35 vs 1822.04

Substance: HIV-1 25711-2.4 Env: N332A
- other: neutralisation sensitivity, other: ID50 (reciprocal plasma dilution): decreases, 357.36 vs 1822.04

Reference: PMC5006590
